T1: CD22 Protein (His Tag), Sino Biological Cat. No. 11958-H08H (UniProt P20273 20-687)
T1 construct: soluble analyte, 50 nM in BLI; also called Sino Biological antigen
T1 sequence (looked up): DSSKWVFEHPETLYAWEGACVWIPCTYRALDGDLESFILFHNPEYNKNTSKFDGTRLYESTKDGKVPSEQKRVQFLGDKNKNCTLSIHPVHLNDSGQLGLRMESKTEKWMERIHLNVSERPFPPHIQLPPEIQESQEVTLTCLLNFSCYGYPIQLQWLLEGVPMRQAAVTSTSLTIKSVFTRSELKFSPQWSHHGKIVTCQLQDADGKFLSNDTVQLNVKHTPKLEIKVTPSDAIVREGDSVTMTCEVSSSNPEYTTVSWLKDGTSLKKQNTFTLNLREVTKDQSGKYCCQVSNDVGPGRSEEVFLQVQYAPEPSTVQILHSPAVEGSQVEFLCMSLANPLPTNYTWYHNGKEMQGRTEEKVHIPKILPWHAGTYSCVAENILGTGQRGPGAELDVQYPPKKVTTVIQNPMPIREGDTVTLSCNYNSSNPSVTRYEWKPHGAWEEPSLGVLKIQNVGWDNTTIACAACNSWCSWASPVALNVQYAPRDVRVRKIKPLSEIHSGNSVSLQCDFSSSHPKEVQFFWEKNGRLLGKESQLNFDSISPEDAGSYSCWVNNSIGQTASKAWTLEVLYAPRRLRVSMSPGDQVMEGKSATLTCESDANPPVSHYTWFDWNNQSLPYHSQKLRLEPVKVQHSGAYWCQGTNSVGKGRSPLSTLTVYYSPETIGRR


Molecular target: T1, CD22 Protein (His Tag), Sino Biological …
Assay: BLI, IgG on anti-human Fc sensor

binding result | Binder
no binding (tested: 50 nM) | MYT1523 (antibody, V domains shown, ADCT-602 VH A97H; tie by order) VH: QVQLVQSGAEVKKPGSSVKVSCKASGYTFTSYWLHWVRQAPGQGLEWIGYINPRNDYTEYNQNFKDKATITADESTNTAYMELSSLRSEDTAFYFCHRRDITTFYWGQGTTVTVSS VL: DIQLTQSPSSLSASVGDRVTMSCKSSQSVLYSANHKNYLAWYQQKPGKAPKLLIYWASTRESGVPSRFSGSGSGTDFTFTISSLQPEDIATYYCHQYLSSWTFGGGTKVQIK
no binding (tested: 50 nM) | MYT1527 (antibody, V domains shown, ADCT-602 VH I101H; tie by order) VH: QVQLVQSGAEVKKPGSSVKVSCKASGYTFTSYWLHWVRQAPGQGLEWIGYINPRNDYTEYNQNFKDKATITADESTNTAYMELSSLRSEDTAFYFCARRDHTTFYWGQGTTVTVSS VL: DIQLTQSPSSLSASVGDRVTMSCKSSQSVLYSANHKNYLAWYQQKPGKAPKLLIYWASTRESGVPSRFSGSGSGTDFTFTISSLQPEDIATYYCHQYLSSWTFGGGTKVQIK
no binding (tested: 50 nM) | MYT1521 (antibody, V domains shown, ADCT-602 VH K65H; tie by order) VH: QVQLVQSGAEVKKPGSSVKVSCKASGYTFTSYWLHWVRQAPGQGLEWIGYINPRNDYTEYNQNFHDKATITADESTNTAYMELSSLRSEDTAFYFCARRDITTFYWGQGTTVTVSS VL: DIQLTQSPSSLSASVGDRVTMSCKSSQSVLYSANHKNYLAWYQQKPGKAPKLLIYWASTRESGVPSRFSGSGSGTDFTFTISSLQPEDIATYYCHQYLSSWTFGGGTKVQIK
no binding (tested: 50 nM) | MYT1509 (antibody, V domains shown, ADCT-602 VH P53H; tie by order) VH: QVQLVQSGAEVKKPGSSVKVSCKASGYTFTSYWLHWVRQAPGQGLEWIGYINHRNDYTEYNQNFKDKATITADESTNTAYMELSSLRSEDTAFYFCARRDITTFYWGQGTTVTVSS VL: DIQLTQSPSSLSASVGDRVTMSCKSSQSVLYSANHKNYLAWYQQKPGKAPKLLIYWASTRESGVPSRFSGSGSGTDFTFTISSLQPEDIATYYCHQYLSSWTFGGGTKVQIK
no binding (tested: 50 nM) | MYT1513 (antibody, V domains shown, ADCT-602 VH Y57H; tie by order) VH: QVQLVQSGAEVKKPGSSVKVSCKASGYTFTSYWLHWVRQAPGQGLEWIGYINPRNDHTEYNQNFKDKATITADESTNTAYMELSSLRSEDTAFYFCARRDITTFYWGQGTTVTVSS VL: DIQLTQSPSSLSASVGDRVTMSCKSSQSVLYSANHKNYLAWYQQKPGKAPKLLIYWASTRESGVPSRFSGSGSGTDFTFTISSLQPEDIATYYCHQYLSSWTFGGGTKVQIK

Further lines, the binder ahead of its results:

Binder | binding result
MYT4624 (antibody, V domains shown, 12C5 VH A33H; tie by order) VH: QVQLVQSGSELKKPGASVKVSCKASGYTFTSYHMNWVRQAPGQGLEWMGWINTNTGNPTYAQGFTGRFVFSLDTSVSTAYLQISSLKAEDTAVYYCARLFYYYFGMDVWGQGTTVTVSS VL: QSALTQPASVSGSPGQSITISCTGTSSDVGSYNLVSWYQLHPGKAPKLMIYEVSKRPSGVSNRFSGSRSGNTASLTISGLQAEDEADYYCCSYANSSTLVFGGGTKLTVL | no binding (tested: 50 nM)
MYT4649 (antibody, V domains shown, 12C5 VH F104H; tie by order) VH: QVQLVQSGSELKKPGASVKVSCKASGYTFTSYAMNWVRQAPGQGLEWMGWINTNTGNPTYAQGFTGRFVFSLDTSVSTAYLQISSLKAEDTAVYYCARLFYYYHGMDVWGQGTTVTVSS VL: QSALTQPASVSGSPGQSITISCTGTSSDVGSYNLVSWYQLHPGKAPKLMIYEVSKRPSGVSNRFSGSRSGNTASLTISGLQAEDEADYYCCSYANSSTLVFGGGTKLTVL | no binding (tested: 50 nM)
MYT4650 (antibody, V domains shown, 12C5 VH G105H; tie by order) VH: QVQLVQSGSELKKPGASVKVSCKASGYTFTSYAMNWVRQAPGQGLEWMGWINTNTGNPTYAQGFTGRFVFSLDTSVSTAYLQISSLKAEDTAVYYCARLFYYYFHMDVWGQGTTVTVSS VL: QSALTQPASVSGSPGQSITISCTGTSSDVGSYNLVSWYQLHPGKAPKLMIYEVSKRPSGVSNRFSGSRSGNTASLTISGLQAEDEADYYCCSYANSSTLVFGGGTKLTVL | no binding (tested: 50 nM)
MYT4626 (antibody, V domains shown, 12C5 VH N35H; tie by order) VH: QVQLVQSGSELKKPGASVKVSCKASGYTFTSYAMHWVRQAPGQGLEWMGWINTNTGNPTYAQGFTGRFVFSLDTSVSTAYLQISSLKAEDTAVYYCARLFYYYFGMDVWGQGTTVTVSS VL: QSALTQPASVSGSPGQSITISCTGTSSDVGSYNLVSWYQLHPGKAPKLMIYEVSKRPSGVSNRFSGSRSGNTASLTISGLQAEDEADYYCCSYANSSTLVFGGGTKLTVL | no binding (tested: 50 nM)
MYT1505 (antibody, V domains shown, ADCT-602 VH H35A; tie by order) VH: QVQLVQSGAEVKKPGSSVKVSCKASGYTFTSYWLAWVRQAPGQGLEWIGYINPRNDYTEYNQNFKDKATITADESTNTAYMELSSLRSEDTAFYFCARRDITTFYWGQGTTVTVSS VL: DIQLTQSPSSLSASVGDRVTMSCKSSQSVLYSANHKNYLAWYQQKPGKAPKLLIYWASTRESGVPSRFSGSGSGTDFTFTISSLQPEDIATYYCHQYLSSWTFGGGTKVQIK | no binding (tested: 50 nM)
MYT1526 (antibody, V domains shown, ADCT-602 VH D100H; tie by order) VH: QVQLVQSGAEVKKPGSSVKVSCKASGYTFTSYWLHWVRQAPGQGLEWIGYINPRNDYTEYNQNFKDKATITADESTNTAYMELSSLRSEDTAFYFCARRHITTFYWGQGTTVTVSS VL: DIQLTQSPSSLSASVGDRVTMSCKSSQSVLYSANHKNYLAWYQQKPGKAPKLLIYWASTRESGVPSRFSGSGSGTDFTFTISSLQPEDIATYYCHQYLSSWTFGGGTKVQIK | no binding (tested: 50 nM)
MYT1508 (antibody, V domains shown, ADCT-602 VH N52H; tie by order) VH: QVQLVQSGAEVKKPGSSVKVSCKASGYTFTSYWLHWVRQAPGQGLEWIGYIHPRNDYTEYNQNFKDKATITADESTNTAYMELSSLRSEDTAFYFCARRDITTFYWGQGTTVTVSS VL: DIQLTQSPSSLSASVGDRVTMSCKSSQSVLYSANHKNYLAWYQQKPGKAPKLLIYWASTRESGVPSRFSGSGSGTDFTFTISSLQPEDIATYYCHQYLSSWTFGGGTKVQIK | no binding (tested: 50 nM)
MYT1525 (antibody, V domains shown, ADCT-602 VH R99H; tie by order) VH: QVQLVQSGAEVKKPGSSVKVSCKASGYTFTSYWLHWVRQAPGQGLEWIGYINPRNDYTEYNQNFKDKATITADESTNTAYMELSSLRSEDTAFYFCARHDITTFYWGQGTTVTVSS VL: DIQLTQSPSSLSASVGDRVTMSCKSSQSVLYSANHKNYLAWYQQKPGKAPKLLIYWASTRESGVPSRFSGSGSGTDFTFTISSLQPEDIATYYCHQYLSSWTFGGGTKVQIK | no binding (tested: 50 nM)
MYT1529 (antibody, V domains shown, ADCT-602 VH T103H; tie by order) VH: QVQLVQSGAEVKKPGSSVKVSCKASGYTFTSYWLHWVRQAPGQGLEWIGYINPRNDYTEYNQNFKDKATITADESTNTAYMELSSLRSEDTAFYFCARRDITHFYWGQGTTVTVSS VL: DIQLTQSPSSLSASVGDRVTMSCKSSQSVLYSANHKNYLAWYQQKPGKAPKLLIYWASTRESGVPSRFSGSGSGTDFTFTISSLQPEDIATYYCHQYLSSWTFGGGTKVQIK | no binding (tested: 50 nM)
MYT1507 (antibody, V domains shown, ADCT-602 VH I51H; tie by order) VH: QVQLVQSGAEVKKPGSSVKVSCKASGYTFTSYWLHWVRQAPGQGLEWIGYHNPRNDYTEYNQNFKDKATITADESTNTAYMELSSLRSEDTAFYFCARRDITTFYWGQGTTVTVSS VL: DIQLTQSPSSLSASVGDRVTMSCKSSQSVLYSANHKNYLAWYQQKPGKAPKLLIYWASTRESGVPSRFSGSGSGTDFTFTISSLQPEDIATYYCHQYLSSWTFGGGTKVQIK | no binding (tested: 50 nM)
